2 molecules from patent US20260184758A1 (CUE BIOPHARMA, published 2026) can be followed below.

The target in assay [1] is T1, construct 4276 (single-chain TMP: NKG2 peptide …, β2M polypeptide, HLA-E heavy chain polypeptide, Ig Fc …). Briefly: BLI (Octet HTX), biotinylated receptor on streptavidin biosensor, bivalent TMP as analyte, kinetic analysis. The source says:
(§1) Streptavidin-coated biosensors were used to immobilize biotinylated NKG2A/CD94 heterodimers, or biotinylated NKG2C/CD94 heterodimers.

The target in assay [2] is T1, construct 4276 (single-chain TMP: NKG2 …). Briefly: BLI (Octet HTX), biotinylated receptor on streptavidin biosensor, bivalent TMP as analyte, steady state Kd (avidity).
Excerpt: as §1

B1: biotinylated NKG2A/CD94 heterodimer (receptor)
chain 1: not shown
chain 2: KNSFTKLSIEPAFTPGPNIELQKDSDCCSCQEKWVGYRCNCYFISSEQKTWNESRHLCASQKSSLLQLQNTDELDFMSSSQQFYWIGLSYSEEHTAWLWENGSALSQYLFPSFETFNTKNCIAYNPNGNALDESCEDKNRYICKQQLI
notes: Biotinylated heterodimer immobilized on streptavidin-coated biosensors; also called CD94/NKG2A receptor; NKG2A/CD94 complex
As to B1, in assay [1], the koff is 0.04 s⁻¹. In addition, the Kd in assay [2] is 57 nM.

B2: biotinylated NKG2C/CD94 heterodimer (receptor)
chain 1: not shown
chain 2: KNSFTKLSIEPAFTPGPNIELQKDSDCCSCQEKWVGYRCNCYFISSEQKTWNESRHLCASQKSSLLQLQNTDELDFMSSSQQFYWIGLSYSEEHTAWLWENGSALSQYLFPSFETFNTKNCIAYNPNGNALDESCEDKNRYICKQQLI
notes: Biotinylated heterodimer immobilized on streptavidin-coated biosensors; also called CD94/NKG2C receptor
Consider B2, for which the koff in assay [1] worked out at 0.053 s⁻¹. This molecule also returned a Kd in assay [2] of 55 nM.
